Experimental findings from patent publication WO2013041865A1 are described below.

The target of experiment [1] is … HLA-A*01 complex (MAGE-3 peptide, soluble biotinylated pHLA). The experiment in a line: SPR (BIAcore) method of Example 3.
Experiment [2] shares this target. In words: SPR (BIAcore 3000); biotinylated pHLA on streptavidin chip, soluble TCR injected, 25 C.

B1: reference MAGE-3 TCR (disulfide linked soluble heterodimeric form) (TCR, V domains shown)
V domain 1: KQEVTQIPAALSVPEGENLVLNCSFTDSAIYNLQWFRQDPGKGLTSLLLIQSSQREQTSGRLNASLDKSSGRSTLYIAASQPGDSATYLCAVRPGGAGSYQLTFGKGTKLSVIP
V domain 2: KAGVTQTPRYLIKTRGQQVTLSCSPISGHRSVSWYQQTPGQGLQFLFEYFSETQRNKGNFPGRFSGRQFSNSRSEMNVSTLELGDSALYLCASSPNMADEQYFGPGTRLTVTE
In experiment [1], B1 gave a koff of 0.2 s⁻¹. Besides, in experiment [2], the T½ (binding half-life) worked out at 3 s.
